{"source": "the DeepSol protein solubility set", "data": [{"assay": "soluble on expression in E. coli; label from the status in PepcDB or PDB records", "values": [{"sequence": "MIQRNSTLAVLRESFVAGSDENLSPIMHHLWKMEGGAIYFCRSGWAHVTIDLKEYEIVKNTQVVLLPGSIIRINGSSSDFTASFFGFPKDMFREACLRLEPTFFRFMKEKPCYVLPDKDTGAINGLIQATTAIYNDRENRFRNQIAKNHLQSFMLDIYDKCYRYFDKQEIEGGSRQDEIFKKFVALVHENCISQREVNFYANELCISTKYLTGICRSVTGDSAKKIIDDFAILEIKVLLQSTELTMQDIADRLGFPDQSYLGRYFKRHEGMSPREYQNRYVI", "soluble on expression in E. coli": "not soluble"}, {"sequence": "MIRQRRRALTPEQQQEMGQQAATRMMTYPPVVMAHTVAVFLSFDGELDTQPLIEQLWRAGKRVYLPVLHPFSAGNLLFLNYHPQSELVMNRLKIHEPKLDVRDVLPLSRLDVLITPLVAFDEYGQRLGMGGGFYDRTLQNWQHYKTQPVGYAHDCQLVEKLPVEEWDIPLPAVVTPSKVWEWMGHHHHHHSH", "soluble on expression in E. coli": "not soluble"}, {"sequence": "MIRVMATGVFDILHLGHIHYLKESKKLGDELVVVVARDSTARNNGKIPIFDENSRLALISELKVVDRAILGHEGDMMKTVIEVKPDIITLGYDQKFDEAELQSKINKLGITVKIVRISKYDGQLNSSSSVRKKIMELIGERY", "soluble on expression in E. coli": "not soluble"}, {"sequence": "MISENYSRNLVGYGRNAPDPKWPGGARIAVQFVINYEEGGESCILDNDKASESLLSEIVGAQPWPGQRNLNMESIYEYGSRAGFWRLWRMFTGLGVTTTVYGVTAAMARNPEAVAAMKEAGWEIASHGYRWLEYKDFSEEEERKHIVEAVHLHTELTGERPYGMYQGKPSDNTLRLVMEEGGFLYSSDSYADDLPYWVKGVGDEPFLIIPYTLDTNDMRFATPQGFNSGDQFFTYLKDAFDVLYQEGVEGAPKMMSIGLHCRLVGRPGRAAALRRFIEYVLGHEKVWIPQRLEIARHWHEHHKPETP", "soluble on expression in E. coli": "not soluble"}, {"sequence": "MISIFDIFKIGIGPSSSHTVGPMKAAAAFAAGLDAQAVRIVIDIYGSLALTGYGHGTFDALMLGLEGSLPHDIPLAGIPERLERIRTQHILRLNGQEIRFIPDRDLNILGNQVLPKHPNSLRFTAYASDGTVLNEQVYYSVGGGFVVTEEDFDR", "soluble on expression in E. coli": "not soluble"}, {"sequence": "MISIKGTGRFLLDNYRIWQRRAFNRPIQLRKGYKVLAIETSCDDTCVSVLDRFSKSAAPNVLANLKDTLDSIDEGGIIPTKAHIHHQARIGPLTERALIESNAREGIDLICVTRGPGMPGSLSGGLDFAKGLAVAWNKPLIGVHHMLGHLLIPRMGTNGKVPQFPFVSLLVSGGHTTFVLSRAIDDHEILCDTIDIAVGDSLDKCGRELGFKGTMIAREMEKFINQDINDQDFALKLEMPSPLKNSASKRNMLSFSFSAFITALRTNLTKLGKTEIQELPEREIRSIAYQVQESVFDHIINKLKHVLKSQPEKFKNVREFVCSGGVSSNQRLRTKLETELGTLNSTSFFNFYYPPMDLCSDNSIMIGWAGIEIWESLRLVSDLDICPIRQWPLNDLLSVDGWRTDQL", "soluble on expression in E. coli": "not soluble"}, {"sequence": "MISSGWMQEMEPIPEEGTEADGSEWGAMSDTAKRTMRKKEVYTSEQINTLVSTVPKEAVPQEWLVENQVVDPEMATSYLTESLAGPTSARGSSYSYSYESHYDNPPEEEYEHFTNDDGVHQMQKVTRVTKVTTTRSVRQVPVQSPYSNIDFDSSGLPTPSPVIDRDPSLEMMARMGGASDHDSEDRSAPPPAPASRFLHEDSGIPSAPGVPDVVDAGIGEVTVVWSAPLQSNGGEVRGYQIEMREFPDGEWESMGVDHLLKDTTCRVTNLTSHEVQFRVSAYGRTGFGPASNPSLPVKIPISETDLATSAGAPLAPGRPTVIAVDGQGVLLEWTPPVADVHSSPPQGYQVEYRVYGSRDWIVANEQLVQENVFTVESLRPNGVYEFRVRGKNQDGLGHPSMSSGGVAIRPAAPQRHVPARKVSESVQPPGQPQMVEVGDDVVKLEWAPSVQNARYIVEYREVGDPEWHTANYDPIVQNGIQVEGLHRNSTYEFCVISIVDNIASQPSETSDIIHLRPTCNTSALRPAPNILEAPEFLEVDGDKITICWLPAQSQLPVMGYDVEFRDLQQDDRWYKVNDQPVFACKMTVGDLIMDHDYQFRVLAHNASGCSQPSPPSDFVHIEPSTNRFSSDTMESPHLGHHDVVKYVEAERFGAVPLLQEEMVRESPPLPERDDSPPPLRRANNNVQWRDPSLKEVIEYLSSADKDKQLNASGYLQHLTYTDNQIKEETREYGGIPKLIALLRSDTPRIQKNACACLKNLSFGKENDANKLAVMEADGVRLIAEVLRTTHDASVKEEAAAALWNLSSADMLKPVILESATEILSQQVIAPVLAVGTSDPTRHFGSTLFKNSTGVLRNVSAASQQARRRLRDIPNLIEALVHFLTHAIQKSQVDSPTVENAVCLLRNLSYRIQEVVDPNYDPAAAHSSSSKNMKHVASPKPEKKKKDKEKKKDKNPKNIVTGPSVLWQPHVVKLYLKLLQDSSNIETLEASAGAIQNLAACQFPPSAEVRAAVRVEKGLPVLVELIRLPEDFVVCAVATALRNLAIDPRNRELIGKYALRDFLDKLPEPGSPRRSAISDQTIGAVLGILFEIVRSSAAYTKDVHELKGTDKLRALSRSYPTYSHRVCKYASQVLYVMWQHKELHDGFKRSGLKEADFYSGTARRGDSSTLARPISSQGRERPSMHQLDETLSSGGGYGTMESNNRAGTLRPASATSQTIQRRYDQVPRDGPVYSSVQKPSPRGGGGGGNIDDSWV", "soluble on expression in E. coli": "not soluble"}, {"sequence": "MISVNDFRTGLTISVDNALWQVLDFQHVKPGKGAAFVRSKLRNLRTGSVQEKTFRAGEKVEKAHIENRRMQYLYASGEAHVFMDNGTYEQIELGEKQIERELKFLKENMEVAIMTYQGEVLGVELPNTVELQVTETEPGIKGDTASNVTKPATLETGLVVQVPIFINEGEMLIINTGEGKYVSRA", "soluble on expression in E. coli": "not soluble"}, {"sequence": "MITIKFDLNRYSCSWGAGGAFGGNRGLRPIPPEKGIFPLDHLHECDAVFFNKRFFL", "soluble on expression in E. coli": "not soluble"}, {"sequence": "MITQHLIPDFIAKMTGSTEVQKSAGMKKSSSSQFKDTLDLAVEKSYAWQSGTKSYEYAMDIKDRPYQRLQNKNILDSAETKERRPDRTKPFNKASNQITSRASDKAERTASPEEENIEGENDRKLKGKAMEKALAEVLGISVEELEKLMAQLGINFENADGETGIQEAADKISAYLGLNQDEKMALAEMMSLVQKQVEQAFKDVQSAYDAARYDMKDENEAYGVELFHAETETAVEDTSALRNDLDVSKVSQEVKNKLDEETDGFLKQIAAKVVEVVQKDESTAGLKTVSVNGENIEEIGLKTDVEDIGNVREAKYSSDEKDSADNSGNAGSETSSMASRGVEAESAAKNSNNIQFEAVSNLTVQRATGQAEPDKTRNIIPVTNKEIVEQVVEKAKVVLSGDKSEMVIDLKPEHLGKLELKIVTERGMVVAKFVAENEQVKAALESNMNMLKESLEKQGFLVEGFSVTVGDNKRRENSRDKTNQGTANQRISGEKLQVSDMTGVERMQRIHENIDPYSYGSSSIDLTA", "soluble on expression in E. coli": "soluble"}, {"sequence": "MITTPLVHVASVEKGRSYEDFQKVYNAIALKLREDDEYDNYIGYGPVLVRLAWHISGTWDKHDNTGGSYGGTYRFKKEFNDPSNAGLQNGFKFLEPIHKEFPWISSGDLFSLGGVTAVQEMQGPKIPWRCGRVDTPEDTTPDNGRLPDADKDAGYVRTFFQRLNMNDREVVALMGAHALGKTHLKNSGYEGPWGAANNVFTNEFYLNLLNEDWKLEKNDANNEQWDSKSGYMMLPTDYSLIQDPKYLSIVKEYANDQDKFFKDFSKAFEKLLENGITFPKDAPSPFIFKTLEEQGL", "soluble on expression in E. coli": "soluble"}, {"sequence": "MITYKNILIAVDGSHEAEWAFNRAVGVAKRNDAKLTIVNVIDSRTYSSYEVYDAQFTEKSKHFAEELLNGYKEVATNAGVKDVETRLEFGSPKSIIPKKLAHEINADLIMSGTSGLNAVERFIVGSVSESIVRHAPCDVLVVRTEELPADFQPQVATTQLREKYQN", "soluble on expression in E. coli": "not soluble"}, {"sequence": "MIVPEVSSSSTNEANVPESSAGKYTYKDIRDDRVLTYFDLRRGESKTFTVRLQATYAGNFILPAIQCEAMYDAAVQARTKAGRTTVSR", "soluble on expression in E. coli": "not soluble"}, {"sequence": "MIVSMIAALANNRVIGLDNKMPWHLPAELQLFKRATLGKPIVMGRNTFESIGRPLPGRLNIVLSRQTDYQPEGVTVVATLEDAVVAAGDVEELMIIGGATIYNQCLAAADRLYLTHIELTTEGDTWFPDYEQYNWQEIEHESYAADDKNPHNYRFSLLERVK", "soluble on expression in E. coli": "soluble"}, {"sequence": "MIVVSGSQSQNLAFKVAKLLNTKLTRVEYKRFPDNEIYVRIVDEINDDEAVIINTQKNQNDAIVETILLCDALRDEGVKKITLVAPYLAYARQDKKFNPGEAISIRALAKIYSNIVDKLITINPHETHIKDFFTIPFIYGDAVPKLAEYVKDKLNDPIVLAPDKGALEFAKTASKILNAEYDYLEKTRLSPTEIQIAPKTLDAKDRDVFIVDDIISTGGTMATAVKLLKEQGAKKIIAACVHPVLIGDALNKLYSAGVEEVVGTDTYLSEVSKVSVAEVIVDLL", "soluble on expression in E. coli": "soluble"}, {"sequence": "MIYFIRKKKWLKQLEKGEAMKYAILIGDGMADYPIEKLGNRTILQAARTPAMDSIAARGRAGLAKTVPDSFPPGSDVANMSILGYDPATYYSGRAPLEAASMGVALAADDVAFRCNLITTEHGMIKDYSAGHISSDEAEILIDTLDYELSTENIRFYPGISYRHLIVAGNNLGAETECTPPHDITGEKIDKYLPRGKDGEFFSELIEASKVVLELHPVNLKRVEEGKNPANSIWVWGQGYAPKFTAFMKLYGKKGAVISAVDLLKGIGIYAGLDVIEVHGATGYLDTNYEGKVRAAIEALKTRDLVFVHVEAPDEAGHEGSIEKKLKAVEDFDSRIVAPILEYAENSDEPFTILVLPDHPTPISVKTHTRDPIPFAIYRTDKPETDNVEAFDEESVKNGSMGLVKASDLIGILIKSLEHHHHHH", "soluble on expression in E. coli": "soluble"}, {"sequence": "MIYSMTAYARKEVKGDWGSAVWEIRSVNQRYLETYFRLPEQFRGLEPLLRERFRQRLSRGKIECHLRFEANPAAQSHLTINEGLAQQVINAANQIMHMTGELSRINPFQVMQWPGVMETPEQDMDAINQALLSAFDEGVDEFIAARGREGDNMKALIEQRLQAISAEVVKVRARMPEILEWQRERLFSKFEEAKIELDASRVEQELILLAQKSDVAEELDRLDSHVKEAREVLKKGGSCGRKLDFMMQEFNRESNTLASKSISTDITASGVELKVLIEQMREQIQNIE", "soluble on expression in E. coli": "not soluble"}, {"sequence": "MKAERILGALYGQALGDAMGMPSELWPRTRVKAHFGWIDRFLPGPKENNAACYFNRAEFTDDTAMALCLADALLECEGNIDPEIIGRNILAWAERFDAFNKNVLGPTSKIALNAIRDGKPIAALENNGVTNGAAMRVSPLGCLLPPTNLTAFIAEVALASSPTHKSDLAVAGAVVVAWAVSRAVNGDTWQSIADSLPAVAHQAQTARITTFSASLSARLELALNIVRHADGVESASEQLYQIIGAGTSTIESVPCAIAMVELANTDPNRCAVLCANLGGDTDTIGAMATAICGALHGVSAINPQLKQTLDEVNQLDFARYAVALASYRQRREAL", "soluble on expression in E. coli": "not soluble"}, {"sequence": "MKAICVLSGGLDSAVTSMFAKSKNYDISTVTFNYGQMALNQEIKSAKKISDILNADHHVIDINFVKEFSKSGLNTGNIPEPENEDLDDFEKSEKTMKAVWVPARNMIMFSIASGFAEGIGAEKIFSGLNKEEGVTFPDNTPEFIERFNKSLEYGTLNKVKMVAPLYELNKPEIAKLGKELELKLDLEVLKYSYSCYKDNGKDYLHCGTCESCMRRKRAFKEAGITDPTKYLVE", "soluble on expression in E. coli": "not soluble"}]}]}
